Reference: patent US20160303245A1, “FATTY ACID DERIVATIVES OF DIMERIC INHIBITORS OF PSD-95” (UNIVERSITY OF COPENHAGEN, priority 2013, published 2016)

Tests used:
[1] = target: Human Serum Albumin (human), P02768; assay: calculated from KD(HSA) at 150 µM HSA (equation 2)
[2] = target: Human Serum Albumin (human), P02768; assay: Transil XL HSA binding kit (immobilized HSA), unbound compound by RP-HPLC

fu (%), fraction unbound [1] | Kd [2] | Binder
43.6% | 116 µM | IETDV (modifications not checked) [FA-linked dimeric ligand 14]
26.8% | 55 µM | IETDV (modifications not checked) [FA-linked dimeric ligand 15]
